According to US20200270346A1:

Key:
[1] = biological target: human TIGIT expressed on cells (human) (UniProt Q495A1); assay: cell-based or functional assay
[2] = biological target: human TIGIT-Fc protein (human) (UniProt Q495A1); assay: SPR, Biacore T200, antibody captured on anti-mouse IgG, TIGIT-Fc in solution, 1:1 Langmuir fit
[3] = biological target: Human TIGIT-His (extracellular domain of hTIGIT with a histidine tag) (human) (UniProt Q495A1); assay: SPR, Biacore T200, antibody captured on anti-mouse IgG, TIGIT-His in solution, 1:1 Langmuir fit
Human TIGIT-His (extracellular domain of hTIGIT with a histidine tag) (human), sequence (Q495A1 25-141 limits assumed): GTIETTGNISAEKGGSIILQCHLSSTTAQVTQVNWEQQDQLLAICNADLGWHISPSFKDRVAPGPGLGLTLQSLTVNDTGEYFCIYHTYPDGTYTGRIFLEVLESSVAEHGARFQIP

human TIGIT expressed on cells (human), sequence (Q495A1 25-244): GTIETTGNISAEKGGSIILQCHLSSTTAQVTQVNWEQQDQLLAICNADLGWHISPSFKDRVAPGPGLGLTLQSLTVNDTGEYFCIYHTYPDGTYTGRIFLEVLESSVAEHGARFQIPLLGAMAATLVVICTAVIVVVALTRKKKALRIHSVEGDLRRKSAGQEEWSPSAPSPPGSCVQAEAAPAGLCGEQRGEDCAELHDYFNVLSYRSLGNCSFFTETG
human TIGIT-Fc protein (human), sequence (Q495A1 25-141): as the sequence (Q495A1 25-141 limits assumed) above

MBSA43 (commercial mouse anti-human TIGIT antibody, eBioscience Cat #12-9500-42)
EC50 of IL-2 rescue in hTIGIT-Jurkat / THP-1 co-culture [1]: 0.24 mg/L
Kd [2]: 0.0165 nM
Kd [3]: 0.0363 nM
